This passage reports Kd results from the Immune Epitope Database (IEDB).

For orientation: pKd means the Kd on a negative log10 scale, so that one unit is a factor of ten. Read a high pKd as a small Kd.

One assay addresses HLA-A*24:03. The assay can be described thus: IEDB peptide-MHC binding, purified MHC/competitive/fluorescence; filed as Kd, often an IC50 or EC50 that approximates it; ≥ and ≤ were set here for values at or beyond the usual limits of such assays.
In the next assay the target is HLA-B*39:01. The description is as above. The note with it: source organism: Escherichia coli str. K-12 substr. MG1655.
The target in assay [1] is HLA-C*04:01. The assay can be described thus: IEDB peptide-MHC binding, purified MHC/direct/fluorescence; filed as Kd, often an IC50 or EC50 that approximates it; ≥ and ≤ were set here for values at or beyond the usual limits of such assays.
In a further assay the target is HLA-B*40:13. The assay can be described thus: IEDB peptide-MHC binding, purified MHC/competitive/fluorescence; filed as Kd, often an IC50 or EC50 that approximates it; ≥ and ≤ were set here for values at or beyond the usual limits of such assays.
Another assay addresses HLA-B*45:06. Described as above.
A further assay has as its target HLA-A*32:07. Described as above.
The next assay deals with HLA-B*48:01. The description is as above. The note with it: source organism: Burkholderia mallei SAVP1.
A further assay deals with HLA-B*15:42. Described as above.
The target in a further assay is HLA-B*83:01. The assay is described as above.
A further assay addresses HLA-B*27:20. The assay is described as above. The note with it: source organism: Burkholderia mallei SAVP1.
For assay [2], the target named is HLA-C*06:02. The assay can be described thus: IEDB peptide-MHC binding, purified MHC/direct/fluorescence; filed as Kd, often an IC50 or EC50 that approximates it; ≥ and ≤ were set here for values at or beyond the usual limits of such assays.
In another assay the target is HLA-C*12:03. The description is as above. The note with it: source organism: Bacillus anthracis str. A0488.
The target of assay [3] is HLA-A*03:01. The assay can be described thus: IEDB peptide-MHC binding, purified MHC/competitive/fluorescence; filed as Kd, often an IC50 or EC50 that approximates it; ≥ and ≤ were set here for values at or beyond the usual limits of such assays. The note with it: source organism: Cryptosporidium parvum Iowa II.
Assay [4] deals with HLA-C*04:01. The assay is described as above.
The next assay deals with HLA-C*14:02. The assay is described as above.
The next assay concerns the target HLA-A*26:01. The description is as above. The note with it: source organism: Orthohantavirus sinnombreense.
In the next assay the target is HLA-A*03:19. The assay is described as above. The note with it: source organism: Orthohantavirus sinnombreense.
The target in a further assay is HLA-B*27:03. The description is as above. The note with it: source organism: Orthohantavirus sinnombreense.
Another assay concerns the target HLA-A*32:15. The assay is described as above.
Assay [5] deals with HLA-B*18:01. Described as above. The note with it: source organism: Orthohantavirus sinnombreense.
For assay [6], the target named is HLA-C*06:02. Described as above. The note with it: source organism: Orthohantavirus sinnombreense.
The target of a further assay is HLA-B*51:01. The description is as above. The note with it: source organism: Orthohantavirus sinnombreense.
A further assay deals with HLA-A*68:23. The assay is described as above.
For assay [7], the target named is HLA-A*03:01. Nature of the assay: IEDB peptide-MHC binding, purified MHC/direct/fluorescence; filed as Kd, often an IC50 or EC50 that approximates it; ≥ and ≤ were set here for values at or beyond the usual limits of such assays.
The target in a further assay is HLA-A*02:01. Described as above.
A further assay concerns the target HLA-C*05:01. The description is as above. The note with it: source organism: Orthohantavirus sinnombreense.
Another assay addresses HLA-B*35:01. The assay can be described thus: IEDB peptide-MHC binding, purified MHC/competitive/fluorescence; filed as Kd, often an IC50 or EC50 that approximates it; ≥ and ≤ were set here for values at or beyond the usual limits of such assays. The note with it: source organism: Yersinia pestis Nepal516.
Assay [8] deals with HLA-B*15:01. The description is as above. The note with it: source organism: Yersinia pestis Nepal516.
Another assay has as its target HLA-C*15:02. The assay can be described thus: IEDB peptide-MHC binding, purified MHC/direct/fluorescence; filed as Kd, often an IC50 or EC50 that approximates it; ≥ and ≤ were set here for values at or beyond the usual limits of such assays. The note with it: source organism: Yersinia pestis Nepal516.
The target in another assay is HLA-B*15:09. The assay is described as above. The note with it: source organism: Influenza A virus(A/swine/Henan/8/2004(H9N2)).
Assay [9] concerns the target HLA-B*18:01. The assay is described as above. The note with it: source organism: Influenza A virus (A/equine/Massachussetts/213/2003(H3N8)).
The next assay has as its target HLA-A*69:01. The description is as above. The note with it: source organism: Influenza A virus (A/equine/Massachussetts/213/2003(H3N8)).
For the next assay, the target named is HLA-A*31:01. The assay is described as above. The note with it: source organism: Influenza A virus (A/equine/Massachussetts/213/2003(H3N8)).
A further assay concerns the target HLA-B*40:01. The description is as above. The note with it: source organism: Influenza A virus (A/equine/Massachussetts/213/2003(H3N8)).
The target of a further assay is HLA-B*58:01. The description is as above. The note with it: source organism: Influenza A virus (A/equine/Massachussetts/213/2003(H3N8)).
The next assay concerns the target HLA-A*01:01. The assay is described as above. The note with it: source organism: Influenza A virus (A/equine/Massachussetts/213/2003(H3N8)).
The target in the next assay is HLA-B*07:02. Described as above. The note with it: source organism: Influenza A virus (A/equine/Massachussetts/213/2003(H3N8)).
Assay [10] concerns the target HLA-B*15:01. The description is as above. The note with it: source organism: Influenza A virus (A/Puerto Rico/8/34/Mount Sinai(H1N1)).
A further assay deals with HLA-A*24:02. Described as above. The note with it: source organism: Influenza A virus (A/equine/Massachussetts/213/2003(H3N8)).
A further assay addresses HLA-B*27:05. Described as above. The note with it: source organism: Influenza A virus (A/equine/Massachussetts/213/2003(H3N8)).
The target of the next assay is HLA-B*46:01. Described as above. The note with it: source organism: Influenza A virus (A/equine/Massachussetts/213/2003(H3N8)).
The next assay has as its target HLA-A*11:01. The description is as above. The note with it: source organism: Influenza A virus (A/equine/Massachussetts/213/2003(H3N8)).
Setting [11] is: source organism: Escherichia coli str. K-12 substr. MG1655.
Setting [12] is: source organism: Burkholderia mallei SAVP1.
[13] abbreviates: source organism: Bacillus anthracis str. A0488.
Where [14] appears, read: source organism: Cryptosporidium parvum Iowa II.
The mark [15] stands for this setting: source organism: Orthohantavirus sinnombreense.
Where [16] appears, read: source organism: Yersinia pestis Nepal516.
[17] abbreviates: source organism: Influenza A virus (A/equine/Massachussetts/213/2003(H3N8)).

pKd: −log10 of the molar value. Bounds are passed on as bounds.

RYDKSAADL: the pKd was 6.32 in the assay with HLA-A*24:03 (setting [11]), at most 4.70 in the assay with HLA-B*39:01 and at most 4.70 in the assay with HLA-C*04:01 [1] (setting [11]).
As for RQYERYTAL, the negative-log Kd (pKd) was 7.42 with HLA-B*40:13 (setting [12]); at most 5.30 with HLA-B*45:06 (setting [12]); 8.12 in the assay with HLA-A*32:07 (setting [12]); 7.26 in the assay with HLA-B*48:01; 6.13 with HLA-B*15:42 (setting [12]); at most 5.30 with HLA-B*83:01 (setting [12]). Also, the negative logarithm of the Kd (pKd) with HLA-B*27:20 is 9.52; with HLA-C*06:02 [2] (setting [12]) it was 5.74.
For the sequence YFIFVRAIL, the negative-log Kd (pKd) is 7.44 in the assay with HLA-A*24:03 (setting [13]), 6.36 with HLA-C*12:03 and at most 4.70 with HLA-C*04:01 [1] (setting [13]).
On to VGYYTFHPK, for which the pKd in the assay with HLA-A*03:01 [3] was 9.05; with HLA-B*45:06 (setting [14]), at most 5.30; with HLA-B*15:42 (setting [14]) it was at most 5.30; with HLA-B*83:01 (setting [14]), at most 5.30; in the assay with HLA-C*04:01 [4] (setting [14]) it was at most 5.30.
Take YTFTSLFSL: the pKd is 8.24 in the assay with HLA-C*14:02 (setting [15]); at most 4.70 with HLA-A*26:01; 5.51 in the assay with HLA-A*03:19; at most 4.70 with HLA-B*27:03; 7.09 with HLA-A*32:15 (setting [15]); at most 4.70 in the assay with HLA-B*18:01 [5]. The pKd was at most 5.30 with HLA-B*45:06 (setting [15]); 6.07 in the assay with HLA-A*32:07 (setting [15]); 6.84 with HLA-C*06:02 [6]; at most 4.70 in the assay with HLA-B*51:01; 7.85 in the assay with HLA-A*68:23 (setting [15]); at most 5.30 with HLA-B*15:42 (setting [15]). Besides, the negative-log Kd (pKd) with HLA-B*83:01 (setting [15]) was at most 5.30; with HLA-A*03:01 [7] (source organism: Limestone Canyon virus), at most 4.70; with HLA-A*02:01 (source organism: Itapua hantavirus), 8.82; with HLA-C*05:01, at most 4.70.
Take MMMSTAVAF: the negative-log Kd (pKd) is 8.96 with HLA-C*14:02 (setting [16]); 9.22 in the assay with HLA-B*35:01; 6.61 with HLA-A*32:15 (setting [16]); 6.44 with HLA-B*40:13 (setting [16]); at most 5.30 in the assay with HLA-B*45:06 (setting [16]); 7.02 with HLA-A*32:07 (setting [16]). In addition, the pKd in the assay with HLA-A*68:23 (setting [16]) is 6.19; with HLA-B*15:42 (setting [16]) it was at most 5.30; in the assay with HLA-B*83:01 (setting [16]), at most 5.30; with HLA-B*15:01 [8], 6.27; with HLA-C*04:01 [4] (setting [16]), 5.49; in the assay with HLA-C*15:02, at most 4.70. Further, the negative-log Kd (pKd) with HLA-C*06:02 [2] (setting [16]) was at most 4.70.
With ILKGKFQTA, the pKd with HLA-A*03:01 [7] (setting [17]), with HLA-B*15:09, with HLA-A*02:01 (setting [17]), in the assay with HLA-B*18:01 [9], with HLA-A*69:01 and with HLA-A*31:01 was at most 4.70 each time. Further, the negative-log Kd (pKd) with HLA-B*40:01 was at most 4.70; with HLA-B*58:01, at most 4.70; with HLA-A*01:01, at most 4.70; with HLA-B*07:02, at most 4.70; in the assay with HLA-B*15:01 [10], 5.24; with HLA-A*24:02, at most 4.70. Also, the negative logarithm of the Kd (pKd) in the assay with HLA-B*27:05, with HLA-B*46:01 and with HLA-A*11:01 was at most 4.70 throughout.
